Assay results from the supplement of paper PMC10567573.

B1: ZC3H15 (parent)
chain: RKADFKAGKALVISGREVFEFRPE
B2: HESX1 (parent)
chain: ENKPSTCSFSIERILGLDQKKDCV

Variants of: B1
Assay: protein stability index of a GFP-peptide fusion (GPS, HEK-293T) (PSI 1-6); higher = more stable
Conditions: c terminus: a fixed tail appended
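Note: lentivirally expressed fusions sorted by FACS into six bins by GFP to DsRed ratio, PSI derived from sequencing read proportions per bin multiplied by bin number.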

Protein stability index: each site, then its substitutions
E24: M 2, N 2.84, K 2.31, H 2.18, F 1.85, A 2.69, D 3.11, L 1.9, Y 2.17, S 2.78, I 1.94, V 2, C 2.22, T 2.52, R 2.43, G 2.12, P 2.44, Q 2.84, W 1.84
V18: C 2.95, T 3.32, Y 2.74, D 3.69, N 3.61, G 3.37, S 3.34, Q 3.46, M 2.8, F 2.68, H 3.22, P 3.05, I 2.95, L 2.72, K 3.56, E 3.89, W 2.86, R 3.58
R22: H 2.72, S 3.29, A 3, C 2.24, N 3.07, Q 3.83, G 3.4, T 3.03, L 2.35, I 2.81, M 3.54, V 2.78, Y 2.84, D 3.72, P 3.25, F 2.98, E 3.53, K 3.24, W 2.39
E20: L 2.51, A 2.5, F 1.96, Q 2.74, G 3.1, W 1.61, S 2.1, P 2.62, N 2.81, Y 1.66, C 2.68, D 3.37, H 2.13, R 3.14, I 1.71, M 2.27, T 2.73, V 2.34, K 2.68
P23: F 2.27, Y 1.9, L 1.61, M 2.09, D 3.82, T 3.17, W 1.24, R 2.73, N 3.53, K 3.35, V 1.94, H 2.62, S 3.44, E 3.38, Q 3.31, I 1.35, G 3.18, C 2.42
F21: L 2.82, N 3.73, D 4.04, P 3.69, M 3.29, T 3.73, V 3.5, H 3.57, G 4.2, C 3.78, A 3.05, Q 4.23, I 2.68, K 3.58, R 3.48, S 3.91, Y 3.21, W 2.85, E 4.46
F19: W 2.43, G 3.7, A 4.01, S 3.51, H 4.13, V 3.25, R 4.24, T 3.7, M 3.43, D 4.68, I 3.51, P 4.08, K 3.47, Q 3.63, C 3.76, L 3.33, Y 2.75, N 4.05, E 4.23

Variants of: B2
Assay: as above
Conditions: c terminus: a fixed tail appended

Protein stability index, by site and new letter:
S5: M 2.75, Y 2.54, P 3.48, I 3.02, D 3.16, V 2.5, R 2.56, T 3.42, H 2.81, W 2.13, F 1.96, C 2.71, L 2.18, G 3.31, Q 2.89, A 2.94, N 3.09, E 3.77, K 2.85
P4: Q 3.18, H 2.52, I 3.02, F 2.62, M 2.99, C 2.42, R 3.41, K 2.7, T 3.67, V 3.35, W 2.54, D 3.86, G 2.84, L 2.86, Y 1.94, N 2.79, S 2.71, A 2.99
S10: A 2.86, M 2.48, R 2.71, F 2.84, D 4, W 2.76, H 3.5, V 2.29, I 2.62, T 4.07, C 2.38, P 4.28, Y 2.8, N 3.27, L 3.05, E 3.01, K 3.77, G 3.27, Q 3.26
S8: P 4.2, G 2.51, V 3.1, M 3.73, F 3.04, C 4.28, D 3.88, Q 3.23, R 2.79, L 3.07, E 4.18, A 3.46, H 2.7, K 2.94, W 2.14, T 3.52, N 3.07, Y 2.66, I 2.83
C7: S 3.98, E 4.23, V 3.17, Q 3.96, H 3.91, P 4.01, A 3.58, L 2.94, D 4.13, Y 3.43, R 3.92, K 3.52, M 3.32, W 2.33, G 3.87, F 3.11, T 3.74, N 4.05, I 1.84
N2: I 2.32, C 2.57, G 2.49, Q 2.93, A 2.15, D 2.94, T 2.91, P 2.82, M 2.53, L 2.79, F 1.97, V 2.88, E 3.52, Y 1.77, H 2.57, K 3.37, W 1.91, S 2.87, R 2.88
F9: Q 4.3, L 4.07, C 3.43, A 3.86, E 4.41, Y 3.52, I 3.43, N 4.2, V 4.09, T 4.45, K 4.3, W 2.42, G 4.43, R 3.88, P 5.09, D 4.24, H 4.15, S 3.97, M 2.79
I11: K 4, P 5.12, A 3.27, L 3.58, R 4.73, M 3.42, H 3.7, D 4.04, E 5.05, Q 3.97, F 3.06, G 3.13, N 4.63, C 3.27
E1: P 2.79, L 2.13, D 3.29, K 1.68, A 2.61, H 2.73, G 2.32, F 1.92, S 2.37, Y 1.95, R 2.79, M 2.45, N 2.77, W 2.37, V 2.32, T 2.85, I 2.68, Q 2.28, C 2.27
K3: Y 2.83, D 3.66, N 3.04, F 2.16, L 2.35, G 3.1, M 2.92, S 3.84, P 3.17, T 2.53, I 2.84, V 2.71, C 2.78, A 3.59, H 3.42, E 3.85, R 2.58, W 2.93, Q 3.41
T6: I 2.9, E 3.39, S 3.12, A 3.46, G 3.5, M 2.37, Q 3.12, Y 3.16, K 2.41, D 3.96, R 2, P 2.77, N 3.06, L 3.14, C 2.43, W 2.53, V 2.71, F 2.85, H 3.24
